Holding throughout (test): co-sedimentation
In assay [1] the target is F-actin first mixed with high mol wt TMs (rabbit | rat) (UniProt P68135).
The target of assay [2] is F-actin first mixed with low mol wt TMs (rabbit | rat) (UniProt P68135).
A further assay deals with F-actin (rabbit) (UniProt P68135).
The target in assay [3] is F-actin with 83-kD protein (rabbit | rat) (UniProt P68135).

Three substances from PMC2115152 can be followed below.

“And” between values parts separate entries of the source, which are not always exact repeats. Identical values can stand only once.

The term stoichiometry N denotes a count of units in the complex or per binding partner.

Chain of 83-kD nonmuscle caldesmon (Q62736 whole entry): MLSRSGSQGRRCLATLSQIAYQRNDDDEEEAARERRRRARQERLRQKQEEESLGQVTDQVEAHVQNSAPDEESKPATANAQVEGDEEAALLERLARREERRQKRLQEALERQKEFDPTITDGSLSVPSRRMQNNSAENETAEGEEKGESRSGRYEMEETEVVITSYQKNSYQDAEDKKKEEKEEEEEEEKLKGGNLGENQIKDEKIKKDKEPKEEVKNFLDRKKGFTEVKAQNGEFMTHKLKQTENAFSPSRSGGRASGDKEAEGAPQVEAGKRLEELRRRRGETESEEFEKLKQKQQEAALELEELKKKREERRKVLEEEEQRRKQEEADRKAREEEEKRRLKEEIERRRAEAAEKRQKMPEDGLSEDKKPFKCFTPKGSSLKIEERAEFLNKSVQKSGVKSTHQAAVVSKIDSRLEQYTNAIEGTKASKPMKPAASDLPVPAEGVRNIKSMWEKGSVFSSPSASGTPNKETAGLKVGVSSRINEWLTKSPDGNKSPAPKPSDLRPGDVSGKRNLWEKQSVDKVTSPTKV

Take “83-kD nonmuscle caldesmon (from UniProt Q62736 1-531) (natural protein)”: the stoichiometry N (actin per 83-kD protein) in assay [1] and in assay [2] was 6 each time.

In the assay with F-actin (rabbit), “high mol wt TMs (a mixture of TM-1 [40,000] and TM-2 [36,500])” registered a percent of the TM mass bound to actin (50 mM KCl, no 83-kD protein) of less than 10% and a percent of the TMs bound to actin (50 mM KCl, no 83-kD protein) of 10%. Moreover, the fold increase of TM binding to actin against no 83-kD protein (50 mM KCl) in assay [3] is 10 fold.

As to “low mol wt TMs (a mixture of TM-4 [32,400] and TM-5 [32,000])”, in the assay with F-actin (rabbit), the Ka stood at 440000 M⁻¹; the TM bound to actin (0.12 mg/ml TMs, no 83-kD protein) was 0.4 µmol; the molar ratio of TMs to sedimentable actin (0.06 mg/ml TMs, no 83-kD protein) turned out to be 157 actin per TM; the molar ratio of TMs to sedimentable actin (0.12 mg/ml TMs, no 83-kD protein) turned out to be 29 actin per TM. Besides, in the assay with F-actin (rabbit), the percent of actin saturated with TMs (0.06 mg/ml TMs, no 83-kD protein) is 3% and 4%; the percent of actin saturated with TMs (0.12 mg/ml TMs, no 83-kD protein) is 20%; the percent of the TM mass bound to actin (0.06 mg/ml TMs, no 83-kD protein) is 5% and 7%; the stoichiometry N stood at 6 actin per TM. In assay [3], the Ka was 1.5e+06 M⁻¹ and the molar ratio of TMs to sedimentable actin (0.06 mg/ml TMs, 83-kD protein added) turned out to be 14 actin per TM.
